One substance from article PMC9065602, “Characterization of Polymer Degrading Lipases, LIP1 and LIP2 From Pseudomonas chlororaphis PA23” (Frontiers in Bioengineering and Biotechnology, 2022) can be followed below.

In this series the test system is CCCCCCCC(=O)Oc1ccc([N+](=O)[O-])cc1. Briefly: purified protein. Format: biochemical, Pseudomonas chlororaphis. Conditions: 0.1-3.0 mM substrate, optimal conditions (pH 8.0, 40 °C).

In the case of LIP2 (Pseudomonas chlororaphis), the Km (in general, the substrate concentration at which the rate is half of its maximum) was 0.286 mM.
